Reference: US20020164744A1, “Soluble, active recombinant human MAO-B” (priority 1999, published 2002)
Read-outs that look alike come from different tables or passages of the source. Blank lines part the entries; values can stand above or below the molecule they belong to.

Key:
recombinant human MAO-B [1] = experiment: MAO-B activity assay (reaction velocity, specific activity, Km) with 1-methyl-4-(1-methyl-2-pyrryl)-1,2,3,6-tetrahydropyridine as substrate; type: biochemical; conditions: substrate 1-methyl-4-(1-methyl-2-pyrryl)-1,2,3,6-tetrahydropyridine; purified C-terminal deletion mutants
Procedure: (§1) The MAO-B containing solutions, including fractions isolated from chromatography columns, were assayed to measure reaction velocity. The assays were carried out in a final volume of 200 μl in 50 mM sodium phosphate, 10 mM NaCl, pH 7.5, with 0.2 mM substrate (1-methyl-4-(1-methyl-2-pyrryl)-1,2,3,6-tetrahydropyridine) as described in Flaherty, et al., J. Med. Chem., 39:4756-4761 (1996) hereby incorporated by reference. Reaction velocity was followed at an absorbence of 420 nm at 37° C. in a SpectraMax 250 96-well plate reader. Specific activity measurements were made using a Shimadzu UV-2101PC spectrophotometer equipped with a Shimadzu temperature controller (TCC-controller) set to 37° C. Protein concentrations were determined using the Bio-Rad Protein Assay kit (Bio-Rad Laboratories, Hercules, Calif.).
(§2) Analysis of samples containing purified wild-typeMAO-B was carried out using 1-methyl-4-(1-methyl-2-pyrryl)-1,2,3,6-tetrahydropyridine as the substrate. The effect of protein concentration on activity was measured. […] The plot of MAO-B concentration vs. activity was a straight line. Variation of the substrate at a constant enzyme concentration was used to determine the Km for the substrate. […] Again, the reaction progress at each concentration of substrate was followed as straight lines with coefficients of correlation greater than 0.99.
(§3) The activity of samples containing the purified mutant MAO-B described in Example 1 above was also analyzed using 1-methyl-4-(1-methyl-2-pyrryl)-1,2,3,6-tetrahydropyridine as the substrate. Activity was highest for wild-type MAO-B followed by the MAO-B mutant Met1-Leu498 which had approximately 10% of wild-type activity. The two remaining C-terminal deletion mutants, Met1-Val470 and Met1-Val418, had about the same activities, less than 0.1% of wild-type MAO-B activity. This confirms that deletion or truncation of the C-terminus of human MAO-B causes loss of enzymatic activity.

recombinant human MAO-B [2] = molecular target: T1, recombinant human MAO-B (Homo sapiens, UniProt P27338); experiment: as above; type: biochemical
T1 construct: DNA coding for the full length and truncated C-terminal HIS tagged MAO-B proteins, as described above; made in house; host or cells: Saccharomyces cerevisiae INVSc1
T1 sequence (P27338 1-520): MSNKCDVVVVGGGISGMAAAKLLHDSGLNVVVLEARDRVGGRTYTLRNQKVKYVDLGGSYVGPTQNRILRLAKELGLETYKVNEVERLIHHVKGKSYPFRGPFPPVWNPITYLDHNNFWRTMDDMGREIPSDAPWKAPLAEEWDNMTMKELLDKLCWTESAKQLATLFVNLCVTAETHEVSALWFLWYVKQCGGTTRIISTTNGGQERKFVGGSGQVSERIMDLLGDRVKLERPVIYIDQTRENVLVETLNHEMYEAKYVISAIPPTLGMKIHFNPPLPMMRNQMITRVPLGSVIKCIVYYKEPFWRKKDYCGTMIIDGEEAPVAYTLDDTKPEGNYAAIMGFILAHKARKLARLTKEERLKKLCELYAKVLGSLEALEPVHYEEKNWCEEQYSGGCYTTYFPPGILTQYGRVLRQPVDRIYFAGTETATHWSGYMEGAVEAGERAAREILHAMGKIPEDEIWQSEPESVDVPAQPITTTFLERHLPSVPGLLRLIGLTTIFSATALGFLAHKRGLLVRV
Procedure: as §1, §2, §3

[3] = substrate 1-methyl-4-(1-methyl-2-pyrryl)-1,2,3,6-tetrahydropyridine, 37° C., fraction after purification step
[4] = substrate 1-methyl-4-(1-methyl-2-pyrryl)-1,2,3,6-tetrahydropyridine, fraction after purification step, read-out: Km FOR SUBSTRATE

activity relative to wild-type MAO-B activity (recombinant human MAO-B [1]): approximately 10%
B1: Met1-Leu498: C-terminal deletion mutant of human MAO-B-HIS6, residues Met1-Leu498 (protein, UniProt P27338 1-498, looked up, fragment)
chain: MSNKCDVVVVGGGISGMAAAKLLHDSGLNVVVLEARDRVGGRTYTLRNQKVKYVDLGGSYVGPTQNRILRLAKELGLETYKVNEVERLIHHVKGKSYPFRGPFPPVWNPITYLDHNNFWRTMDDMGREIPSDAPWKAPLAEEWDNMTMKELLDKLCWTESAKQLATLFVNLCVTAETHEVSALWFLWYVKQCGGTTRIISTTNGGQERKFVGGSGQVSERIMDLLGDRVKLERPVIYIDQTRENVLVETLNHEMYEAKYVISAIPPTLGMKIHFNPPLPMMRNQMITRVPLGSVIKCIVYYKEPFWRKKDYCGTMIIDGEEAPVAYTLDDTKPEGNYAAIMGFILAHKARKLARLTKEERLKKLCELYAKVLGSLEALEPVHYEEKNWCEEQYSGGCYTTYFPPGILTQYGRVLRQPVDRIYFAGTETATHWSGYMEGAVEAGERAAREILHAMGKIPEDEIWQSEPESVDVPAQPITTTFLERHLPSVPGLLRLIGL
modifications: His6 tag

activity (rank among wild-type and mutants) (recombinant human MAO-B [2]; substrate 1-methyl-4-(1-methyl-2-pyrryl)-1,2,3,6-tetrahydropyridine): highest
B2: wild-type MAO-B: purified full-length recombinant human MAO-B with HIS6 tag expressed in S. cerevisiae (protein, UniProt P27338 1-520, looked up)
chain: T1 sequence (P27338 1-520)
modifications: full-length His6 tag
notes: purified full-length recombinant human MAO-B with HIS6 tag expressed in S. cerevisiae
Km (recombinant human MAO-B [2]; substrate 1-methyl-4-(1-methyl-2-pyrryl)-1,2,3,6-tetrahydropyridine varied at constant enzyme concentration, 37° C., read-out: Km for the substrate (Lineweaver Burke plot)): 71.9 µM

B3: Post-Superose 6 chromatography/concentrate: recombinant human MAO-B further resolved on Superose-6 size exclusion column and concentrated (protein, UniProt P27338 2-520, looked up)
Amine oxidase …: SNKCDVVVVGGGISGMAAAKLLHDSGLNVVVLEARDRVGGRTYTLRNQKVKYVDLGGSYVGPTQNRILRLAKELGLETYKVNEVERLIHHVKGKSYPFRGPFPPVWNPITYLDHNNFWRTMDDMGREIPSDAPWKAPLAEEWDNMTMKELLDKLCWTESAKQLATLFVNLCVTAETHEVSALWFLWYVKQCGGTTRIISTTNGGQERKFVGGSGQVSERIMDLLGDRVKLERPVIYIDQTRENVLVETLNHEMYEAKYVISAIPPTLGMKIHFNPPLPMMRNQMITRVPLGSVIKCIVYYKEPFWRKKDYCGTMIIDGEEAPVAYTLDDTKPEGNYAAIMGFILAHKARKLARLTKEERLKKLCELYAKVLGSLEALEPVHYEEKNWCEEQYSGGCYTTYFPPGILTQYGRVLRQPVDRIYFAGTETATHWSGYMEGAVEAGERAAREILHAMGKIPEDEIWQSEPESVDVPAQPITTTFLERHLPSVPGLLRLIGLTTIFSATALGFLAHKRGLLVRV
SPECIFIC ACTIVITY (recombinant human MAO-B [2]; [3]): 80.6 nmol/min/mg | Km (recombinant human MAO-B [2]; [4]): 55.4 µM

B4: IMAC eluted/concentrate: HIS-tagged recombinant human MAO-B from yeast extract, eluted from Ni-NTA IMAC column and concentrated (protein, UniProt P27338 2-520, looked up)
Amine oxidase …: B3 Amine oxidase …
modifications: His tag
notes: HIS-tagged recombinant human MAO-B from yeast extract, eluted from Ni-NTA IMAC column and concentrated
SPECIFIC ACTIVITY (recombinant human MAO-B [2]; [3]): 8.7 nmol/min/mg | Km (recombinant human MAO-B [2]; [4]): 71.9 µM
